In patent publication US20250134947A1, “TRI-, TETRA AND PENTAPEPTIDES, COMPOSITIONS THEREOF AND THEIR USE IN THE THERAPY OF PSORIASIS” (ENUMITA AS, priority 2021, published 2025):

Each substance was assayed against T1, transformation of SerpinB3 to Pso p27 with chymase (Homo sapiens, UniProt P29508) (assay: Test of peptides: inhibition of chymase transformation of SerpinB3 to Pso p27, SDS-gel-electrophoresis). Settings: SerpinB3 2 μg in 35 μl PBS, peptide 5 μl (10 mg/ml) 1 hour at 37C°, then 1 μl chymase over night at 37C°.
T1 construct: made in house; host or cells: Escherichia coli BL21 (DE3) RIPL (Stratagene)
T1 sequence (P29508 1-390): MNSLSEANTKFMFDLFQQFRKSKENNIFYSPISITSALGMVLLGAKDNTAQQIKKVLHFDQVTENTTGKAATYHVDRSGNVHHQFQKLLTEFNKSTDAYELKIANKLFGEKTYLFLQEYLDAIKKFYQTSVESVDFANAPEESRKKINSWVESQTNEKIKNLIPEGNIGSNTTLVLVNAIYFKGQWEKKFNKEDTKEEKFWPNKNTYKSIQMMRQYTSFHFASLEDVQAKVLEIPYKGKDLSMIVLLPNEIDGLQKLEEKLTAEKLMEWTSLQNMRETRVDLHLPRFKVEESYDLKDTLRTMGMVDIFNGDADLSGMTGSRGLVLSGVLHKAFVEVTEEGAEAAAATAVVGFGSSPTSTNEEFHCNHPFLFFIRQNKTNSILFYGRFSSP
Format: biochemical
Procedure: In this Example, peptides were tested in order to find out whether they are able to prevent and/or inhibit the formation of Pso p27. The peptides were purchased from Biomatik Corporation, 4 Third Ave, Kitchener, Ontario, N2C 1N6, Canada, and analyzed with respect to prevention and/or inhibiting potential. The following methods were used:
Expression vector pMCSG7 Serpin B3 (Clone ID: HsCD00343153) was used. Recombinant SerpinB3 was expressed in Escherichia coli BL21 (DE3) RIPL (Stratagene) and purified as described by Lysvand H, Helland R, Hagen L, Slupphaug G, Iversen OJ., “Psoriasis pathogenesis-Pso p27 is generated from SCCA 1 with chymase”, Biochim. Biophys. Acta 1842 (2014) 734-738.
SerpinB3 solved in phosphate-buffered saline (PBS) (2 μg in 35 μl PBS) was incubated with a tripeptide or tetrapeptide 5 μl (10 mg/ml) for 1 hour at 37C°. 1 μl chymase was added and the mixture was incubated over night at 37C°. The solution was analyzed by SDS-gel-electrophoresis.
SDS-gel-electrophoresis was performed as described by Iversen O J, Lysvand H, Hagen L., “The autoantigen Pso p27: a post-translational modification of SCCA molecules”, Autoimmunity 44 (2011) 229-234.

Prevention and/or inhibition of the cleavage reaction of the serpin molecules SerpinB3/B4, and/or prevention and/or inhibition of the formation of Pso p27, effective:
Asp-Asp-Lys-Pro (DDKP) [tetrapeptide]
Asp-Asp-Pro [DDP]
Asp-Asp-Pro-Lys (DDPK) [tetrapeptide]
Asp-Glu-Leu-Pro (DELP) [tetrapeptide]
Asp-Glu-Pro [DEP]
Asp-Glu-Pro-Asn (DEPN) [tetrapeptide]
Asp-Glu-Pro-Leu (DEPL) [tetrapeptide]
Asp-Leu-Glu-Pro (DLEP) [tetrapeptide]
Asp-Lys-Pro-Asp (DKPD) [tetrapeptide]
Asp-Pro-Asn-Glu (DPNE) [tetrapeptide]
Asp-Pro-Glu [DPE]
Asp-Pro-Glu-Asn (DPEN) [tetrapeptide]
Asp-Pro-Glu-Leu (DPEL) [tetrapeptide]
Asp-Pro-Leu-Glu (DPLE) [tetrapeptide]
Glu-Asn-Asp-Pro (ENDP) [tetrapeptide]
Glu-Asp-Asn-Pro (EDNP) [tetrapeptide]
Glu-Asp-Leu-Pro (EDLP) [tetrapeptide]
Glu-Pro-Asp [EPD]
